The results in this text go back to patent publication US20240124857A1, “COMPOSITION FOR GUT HEALTH” (DUPONT NUTRITION BIOSCIENCES APS, priority 2021, published 2024).

Data set [1] can be described thus: Enzyme activity towards ATP at pH 3 to 9 (malachite green phosphate detection). It counts as biochemical. The note with it: FIG. 1; 250 μM ATP, 5 mM CaCl2, pH 3 to 9. On the procedure: (§1) Enzyme activity towards ATP or ADP at pH 3 to 9: The ability of candidate enzymes to degrade ATP or ADP to AMP and free phosphate (Pi) was measured using a standard malachite green phosphate detection kit (Sigma Aldrich cat no. MAK307). The enzyme reactions were carried out in 96-well plates with a total volume of 150 μL and contained 250 μM of a substrate, 50 mM of a buffer, 5 mM CaCl2, and a variable concentration of enzyme. The substrate was ATP or ADP. The buffer was glycine (pH 3), acetate (pH 4, 4.5, 5), bis-Tris (pH 5.5, 6, 6.5), or Tris (pH 7, 8, 9). The concentration of enzyme varied from about 1 μg/mL to 1 ng/mL and was adjusted based on the activity of the enzyme so that the amount of phosphate released during the assay was with the dynamic range of the assay (5-100 μM phosphate). The enzyme concentration was determined by the absorbance at 280 nm and using the predicted molecular weight and molar extinction coefficient to calculate the concentration. […] The malachite green reaction mixture was allowed to rest at room temperature for 45-60 min and the absorbance at 620 nm was measured. Lastly, the absorbance of the phosphate standards were used to convert the absorbance readings of each sample into phosphate concentrations and the negative control was subtracted from each reaction.

A short description of data set [2]: Enzyme activity towards ADP at pH 3 to 9 (malachite green phosphate detection). The settings on record: FIG. 2; 250 μM ADP, 5 mM CaCl2, pH 3 to 9. It counts as biochemical. On the procedure: as §1
Data set [3] can be described thus: Enzyme acid resistance: residual activity on ATP after incubation at pH 2. It counts as physicochemical. The note with it: 60 min in acid buffer, 50 mM glycine, 5 mM CaCl2; FIG. 4. The method, then:
Enzyme acid resistance: Candidate enzymes were tested for their ability to resist inactivation at low pH by incubating the enzymes in an “acid buffer” of 50 mM glycine and 5 mM CaCl2 at pH 2 for 15 or 60 minutes and comparing their activity to enzymes in a “control buffer” at their optimum pH. The optimum buffer for CRC21323 and CRC21322 was 50 mM acetate pH 4.5 with 5 mM CaCl2. The optimum buffer for all other enzymes was 50 mM bis-Tris pH 6.5 with 5 mM CaCl2. After incubating in the acidic glycine buffer, the enzyme mixtures were neutralized by mixing with an equal volume of neutralization buffer. The neutralization buffer for CRC21323 and CRC21322 was 100 mM acetate and 10 mM CaCl2 at pH 4.5. The neutralization buffer for the other enzymes was 100 mM bis-Tris and 10 mM CaCl2 at pH 6.5. Next, the acid-stressed and control enzyme were tested for their ability to release phosphate from ATP using the reaction conditions and malachite green assay as described in with the following changes. The only substrate tested was ATP. CRC21323 and CRC21322 were tested with a buffer of acetate pH 4.5, but all other enzymes were tested in a buffer of bis-Tris pH 6.5. After determining the concentration of phosphate in each reaction, the residual activity of each enzyme after 15 or 60 min incubation in the “acid buffer” was calculated by dividing the acid-stressed by the control enzyme phosphate concentrations for each enzyme.

For data set [4], the system named is Acute DSS colitis in C57BL/6 mice. The data set is described as follows: Chemically-induced DSS colitis mouse model, disease activity index (DAI). It counts as in vivo. From the text:
Acute DSS colitis was induced in C57BL/6 mice according to the previously published method with minor modification (Sann et al., 2013, Life Sci. April 9; 92(12):708-18). The mice were fed 3% (w/v) DSS dissolved in the drinking water on day one to day five. Fresh DSS solution was provided every other day. Control mice (Group 1) drank only distilled water. Groups 4 to 8 received candidate acid phosphatase enzymes by oral gavage and groups 9 to 12 received enzymes via catheter (Table 2). DAI was calculated as described earlier (Cooper et al., 1993, Laboratory investigation; a journal of technical methods and pathology. 69(2):238-49).

Data set [5] has as its system Apc/minJ mice. The data set is described as follows: Antibiotic-induced gut inflammation in Apc/minJ mice: DAI, colon length, histopathology. The settings on record: antibiotics cocktail, 10 μg/dose oral gavage. It counts as in vivo. The method, then:
(§2) Apc/minJ mice have a mutated adenomatous polyposis coli gene and are more prone to develop colitis and tumors. In this Example, and using this model, 6-7 weeks old mice were subjected to an antibiotics cocktail of vancomycin, ampicillin, and neomycin (1 mg/mL) for 7 days in drinking water in order to induce a gut inflammatory response. Control mice (Groups 1 and 2) drank only distilled water. Groups 4 and 6 received CRC22110 ay 10 μg/dose enzyme by oral gavage and groups 5 and 6 received human microbiota transplant (HMT) by gavage. HMT was prepared by inoculating fecal sample from a healthy human donor in 20 ml of YCFAC media. Culture was grown anaerobically for 16 hrs at 37° C. Cells were collected by centrifugation and washed with PBS. Cells were resuspended in 10% glycerol and cell numbers were estimated by plating on YCFAC agar plates.
Disease Severity: Disease severity was scored using a clinical disease activity index (DAI), calculated as previously described using the following parameters: stool consistency, presence or absence of fecal blood and weight loss (Cooper et al., 1993, Laboratory investigation; a journal of technical methods and pathology. 69(2):238-49). The mice were killed on days 12 and 16, colons were measured, and the tissue was prepared for histopathological studies. The colon was fixed in 10% formaldehyde-saline. Hematoxylin and eosin stain (HE)-stained sections are graded based on a scoring system adapted from Burich et al., 2001, Am. J. Physiol. Gastrointest. Liver Physiol. 281:G764-G778 and Hausmann et al., 2007, Clin Exp Immunol. 2007 May; 148(2):373-81. Histology scoring is performed, and a combined score of inflammatory cell infiltration and tissue damage is determined for all the groups.

Data set [6] concerns commensals from HMT in Apc/minJ mice. As to the kind of experiment: Engraftment of human microbiota transplant (HMT) commensals, 16S sequencing of day 13 fecal samples. The settings on record: group 6 (Ab + HMT + Enz) compared with group 5 (Ab + HMT); FIG. 11. It counts as in vivo. On the procedure:
as §2, with “plates. Promotion of Engraftment: Fecal samples were collected from each mouse per day. Day 13 fecal samples were processed and 16S sequencing was done to evaluate the structure of microbiome. Group 5 was compared with group 6 and engraftment of HMT was evaluated.[…]” for “plates.”

A short description of data set [7]: ATPase activity at 0.05 ppm enzyme on 0.1 mM ATP (absorbance 620 nm). It counts as biochemical. The essentials:
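Enzyme at 0.05 ppm with 0.1 mM ATP in 50 mM MES buffer, pH 6 and pH 5, with 5 mM CaCl2; reaction stopped after 5 min. Released phosphate detected by malachite green at 620 nm, water blank subtracted.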

A short description of data set [8]: Relative activity on ATP of CRC22110 single-site variants. It counts as biochemical. The note with it: in comparison to CRC22110 wild type.

B1: CRC22110: GDA1/CD39 family enzyme, accession EKE69473.1, SEQ ID NO:9 (predicted mature), SEQ ID NO:1 (protein, listed as Gallaecimonas xiamenensis)
chain: ADKPACRAVFDAGSSGTRLFLYVQQEGGWQPWPGAKLGALADPVRQHQGPKAMAALAADLANSLEALRQDGPTNSEGQPRWQGFDWQQACRLQSVSVLATAGMRLAEQQDPVASVALWQEVQQALAGLLGPAVAIDARTLTGFEEGFYAWLAARARLGRSDMGIVEMGGASSQVAFPCPACDRADDAVQQVRLEGQTLDFYSYSFLGLGQDEAPKVLGVPHACRYGAGVKDPNWQLGQCQAQLPLTLGRALKDPYNFQGQGQGGYRQVPTEKAGVKDWLLTGAFQYNTPDQLDSCCLNQGQCYQPSTACFRVAYLPLYLDSLGVDPHSPDLDVSWTLGAVLCRNEQCLAPSKPPCRWRKAGCLAPSVGDGRPEGRPGQQPGGVQHRQH
Turning to B1, the “specific activity on ATP over a range of pHs” value in data set [1] is “most active enzyme”. Further, in data set [2], the “specific activity on ADP over a range of pHs” value is reported as “most active enzyme”. Besides, the “residual activity after incubation at pH 2” value in data set [3] is reported as “greatest resistance”. The “reduction in DAI score compared to control” value in data set [4] (catheterized mice, test items via cecum BID, FIG. 6A, 6B) was 47%. The “DAI score compared to CRCO2733” value in data set [4] (non-catheterized mice, oral gavage BID, FIG. 5A, 5B) was “significant reduction”. Besides, in data set [5] (FIG. 8), the “improvement in DAI score compared to control” value was 25%. For the same molecule, in data set [5] (FIG. 9), the “colon length compared to control” value was “significant improvement”. Further, in data set [5] (FIG. 10), the “focal hyperplasia in the colon (histopathologic analysis)” value was “absent”. In addition, the “engraftment of commensals from HMT” value in data set [6] is recorded as “better engraftment of several commensals from HMT”. The “Activity on ATP (absorbance at 620 nm, blank subtracted), pH 5.0” value in data set [7] (50 mM IVIES buffer pH 5) is 0.60. The “Activity on ATP (absorbance at 620 nm, blank subtracted), pH 6.0” value in data set [7] (50 mM IVIES buffer pH 6) was found to be 0.37. The “Relative activity (%) on ATP” value in data set [8] is 100%.
